Reference: the nanobody polyreactivity screen of Harvey et al. (2022)

Assay: yeast display, Sf9 membrane polyspecificity reagent, FACS + sequencing; frameworks hold sequencing errors
Outline: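 Using colony PCR, genes from sorted yeast display clones were amplified, then sequenced on MiSeq at 2 × 250 and filtered by CDR length. The clones had been stained with 10% biotinylated, detergent-solubilized Sf9 membrane reagent for 1 hour at 4 °C and sorted by FACS into low and high (top ~1%) gates on anti-HA and streptavidin fluorescence. Polyreactivity labels come from the gate of origin.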

Row | Sequence | polyreactivity (PSR sort gate)
1 | QVQLVESGGGLVQAGGSLRLSCAASGNILFSYAMGWYRQAPRKERELVAAISSSGGSTYYADSVKGRFTISRDNAKNNVYLQMNSLKPEDTAVYYCARYSFYKYDYWGQGTQVTVSS | high polyreactivity
2 | QVQLVESGGGLVQAGGSLRLSCAASGNILSVYTLGWYRQAPGKERELVANITYSGDRTYADSVQVRFTISRDNAKTTVYLQMKILKPEDTAVYYCSKDGYPTGGPYWGGMDYWGQGTQVTVSS | low polyreactivity
3 | QVQLVESGGGLVQAGGSLRLSCAASGNNFSYNAMGWYRQAPGKERELVAAITTSSGRTYYADSVKGRFTISRDNAKNTVYLQMNSLKPEDTAVYFCNAVQRYQIGYWGQGTQVTVSS | high polyreactivity
4 | QVQLVESGGGLVQAGGSLRLSCAASGNNFYVNVMGSYRQAPGKEMEFVAAISTRGVSTSYADSVKGRFTISRDNAKYTVYLQMNSLKPEDTAVYYCAASFRRPQPKGTTYGYLGQGTQVTVSS | high polyreactivity
5 | QVQLVESGGGLVQAGGSLRLSCAASGNTFDYYAMGWYRQAPGKERELVAAIDSGTTTYYADSVKGRFTISRDNAKNTVYLQMNSLKPEDTAVYYCAAEYAYVPGWYEYWGQGTQVTVSS | high polyreactivity
6 | QVQLVESGGGLVQAGGSLRLSCAASGNTFDYYTMGWYRQAPGKERELVAAISWNGGSTYYADSVKGRFTISRDNAKTTVYLQMNSLKPEDSAVYYCAVLYRSEYDWGQGTQVTVSS | low polyreactivity
7 | QVQLVESGGGLVQAGGSLRLSCAASGNTFFPYTMGWYRQAPGKERELVAAITWSGVSTYYADSVKGRFTISRDNAKNTVYLQMNSLKPEDTAVYYCAARGPVYVSYPRQYGYWGQGTQVTVSS | high polyreactivity
8 | QVQLVESGGGLVQAGGSLRLSCAASGNTFGFYAMGWYRQAPGKERELVAGITSGDSTYYADSVKGRFTISRDNAKNTVYLQMNSLKPEDTAVYYCATAPYVTSRRYGPYEYWGQGTQGTVSS | low polyreactivity
9 | QVQLVESGGGLVQAGGSLRLSCAASGNTFGKYAMGWSRQAPGKERELLATITRRGGSTYYADSVKGRFTISRDNAKNTVYLQMNSLNPEDTAVYYCAAVVRYRQGVTRSIMDYWGQGTQVTVSS | high polyreactivity
10 | QVQLVESGGGLVQAGGSLRLSCAASGNTFGNYAMGWYRQAPGKERELVAAITTIGGSTYYADSVKGRFTISRDNAKNTVYLQMNRLKPEDTAVYYCAKVENRYPVGKYDYWGQGTQVTVSS | low polyreactivity
11 | QVQLVESGGGLVQAGGSLRLSCAASGNTFGYNAMGWYRQAPGKERELVAAISSSGTRTYYADSVKGRFTISRDNAKNTVYLQMNSLKPEDTAVYYCNARSTRYKFGYWGQGTQVTVSS | high polyreactivity
12 | QVQLVESGGGLVQAGGSLRLSCAASGNTFISYAMGWYRQAPGKERELVAAITWSGGSTYYADSVKGRFTISRDNAKNTVYLQMNSLKPEDTAVYYCAKFTHNYYYWGQGTQVTVSS | high polyreactivity
13 | QVQLVESGGGLVQAGGSLRLSCAASGNTFKTNAMGWYRQAPGKERELVAAISSSGSTYYADSVKGRFTISRDNAKNTVYLQMNSLKPEDTAVYYCAVTYRRFYYWGQGTQVTVSS | high polyreactivity
14 | QVQLVESGGGLVQAGGSLRLSCAASGNTFNGYTMGWYRQATGKERELVAVISSYGGRTNYADSVKGRFTISRDNAKITLYLQLNSLKTEVTAVYYCAARSSRLPHIYGYWGQGTQVTVSS | low polyreactivity
15 | QVQLVESGGGLVQAGGSLRLSCAASGNTFNVYAMGWYRQAPGKERELVAAITLSGGSTYYADSVKGRFTISRDNAKNTVYLQMNSLKPEDTAVYYCNAEEVGTDYDYWGQGTQVTVSS | low polyreactivity
16 | QVQLVESGGGLVQAGGSLRLSCAASGNTFPLNAMGWYRQAPGKERDLVAGISRTGGSTYYADSVKGRFTISRDNAKNTVYLQMNSLKPEDTAVYYCAAQSRYWVVRMDYWGQGTQVTVSS | high polyreactivity

Row | Sequence | polyreactivity (PSR sort gate)
17 | QVQLVESGGGLVQAGGSLRLSCAASGNTFPVYAMGWYRQAPGKERELVAAINTSGGSTYYADSVKGRFTISRDNAKYTVYLQMNSLKPEDTAVYYCAADWSYYGDELYYWGQGTQVTVSS | low polyreactivity
18 | QVQLVESGGGLVQAGGSLRLSCAASGNTFPYYAMGWYRQAPGKEREYVATIDRGDGSTYYADSVKGRFTISRDNAKNTVYLQMNSVKPEDTAVYYCAKLRGAFIVPGRGYPIYYYWGQGTQVTVSS | high polyreactivity
19 | QVQLVESGGGLVQAGGSLRLSCAASGNTFRAYAMGWYRQAPGKERELVATITWSGGITDYADSVKGRFTISRDNAKNTVSLQMNSLKPEDTAVYDCAARSYRWWNFNYWGQGTQVTVSS | high polyreactivity
20 | QVQLVESGGGLVQAGGSLRLSCAASGNTFRFYTMGWYRQAPGKERELVAAINSSGRTNYADSVKGRFTISRDNAKNTVYLQMNSLIPEDTAVYYCAADQQRSIDAPYGYWGQGTQVTVSS | low polyreactivity
21 | QVQLVESGGGLVQAGGSLRLSCAASGNTFRFYTMGWYRQAPGKERELVAAINSSGRTNYADSVKGRFTISRDNAKNTVYLQMNSLKPEDTAVYYCAADYYQWSSFLGVYEYDYWGQGTQVTVSS | low polyreactivity
22 | QVQLVESGGGLVQAGGSLRLSCAASGNTFRIYTMGWYRQAPGKERELVATITRRGGSTYYADSVKGRFTISRDNAKNTVYLQMNSLKPEDTAVYYCAARVRGTGVYGGYNYWGQGTQVTVSS | high polyreactivity
23 | QVQLVESGGGLVQAGGSLRLSCAASGNTFRRNVMGWYRQAPGKERELVAAINRGGSTTDADSVKGRFTISRDNAKNTVYLQMNSLKPEDTAVYYCNARTLFKWRHGHYYAYDYWGQGTQVTVSS | high polyreactivity
24 | QVQLVESGGGLVQAGGSLRLSCAASGNTFRVYTMGWYRQAPGKERELVAAINSSGRTNYADSVKGRFTISRDNAKNTVYLLMNCLKPEDTAVYYCAADYYQWSTFLGVYEYAYWGQGTQVTVSS | low polyreactivity
25 | QVQLVESGGGLVQAGGSLRLSCAASGNTFRWNAMGWYRQAPGKERELVAGISIDDGSNYADSVKGRFTISRDNAKKTVYLQMNSLTPEDTAVYDCNRDWALYVFGRHYHAYYSWGQGTHVTVSS | low polyreactivity
26 | QVQLVESGGGLVQAGGSLRLSCAASGNTFRYYAMGWYRQAPGKERELVAVITTRGGSTNYADSVKGRFTISRDNAKNTVYLQMNSLKPEDTAVYYCAARPGIRSYPPGYGYWGQGTQVTVSS | low polyreactivity
27 | QVQLVESGGGLVQAGGSLRLSCAASGNTFSDYAMGWYRQAPGKERELVAAISSSGVRTYYADSVKGRYTISRDNAKNTVYLQINSLKPEDTAVSYCNAVLNQLSYIYPAVGFWGQGTLVTVSS | high polyreactivity
28 | QVQLVESGGGLVQAGGSLRLSCAASGNTFSRYAMGWYRQAPGKERELVAAISYSTGSTRYADSVKGRFTISRDNAKNTVYLQMNSLKPEDTAVYYCAARAKSRGYWGQGTQVTVSS | high polyreactivity
29 | QVQLVESGGGLVQAGGSLRLSCAASGNTFSSNAMGWYRQAPGKERELVAAISWSGGRTYYADSVKGRFTISRDNAKNTVYLQMNSLKPEDTAVYYCAAALGRRRTGYDYWGQGTQVTVSS | high polyreactivity
30 | QVQLVESGGGLVQAGGSLRLSCAASGNTFTRNTMGWYRPAPGKERELVASISLSGASTYYADSVKGRFTISRDNAKNTVYLQMNSLKPEDTAVYYCAAEYFNYKTDVDYWGQGTQVTVSS | high polyreactivity
31 | QVQLVESGGGLVQAGGSLRLSCAASGNTFTWYTMGWYRQAPGKERELVAAISSSGGNTYYADSVKGRFTISRDNAKNTVYLQMNSLKPEDTAVYYCAADLSSAYGHDYRGQGTQVTVSS | low polyreactivity
32 | QVQLVESGGGLVQAGGSLRLSCAASGNTFTWYTMGWYRQAPGKERELVAVITSDGSTYYADSVKGRFTISRDNAKNTVYLQMNSLKPEDTAVYYCNKATVTGQESYAYDYWGQGTQVTVSS | low polyreactivity
